Drawing on US20190300590A1, this text covers IC50 and pStat3 HTRF IC50 for 20 substances.

For assay [1], the target named is IL23R_huFC (human) (UniProt Q5VWK5). Nature of the assay: Human IL23R/IL23 ELISA. For orientation: An ELISA detects its analyte on a solid surface through an enzyme-linked reagent.
Target sequence in this assay (Q5VWK5 24-353): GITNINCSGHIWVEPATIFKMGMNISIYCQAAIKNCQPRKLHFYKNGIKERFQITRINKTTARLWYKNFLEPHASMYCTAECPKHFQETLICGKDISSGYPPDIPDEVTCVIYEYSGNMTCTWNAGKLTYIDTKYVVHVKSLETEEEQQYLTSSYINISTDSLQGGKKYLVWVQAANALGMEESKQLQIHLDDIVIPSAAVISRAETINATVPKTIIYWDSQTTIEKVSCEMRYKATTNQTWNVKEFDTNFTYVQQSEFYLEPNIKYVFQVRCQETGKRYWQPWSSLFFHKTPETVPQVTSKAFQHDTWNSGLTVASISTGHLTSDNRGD
The target is the same in assay [2]. Kind of assay: IL23-IL23R competitive binding ELISA.
Target sequence in this assay (Q5VWK5 24-353 limits assumed): as the sequence (Q5VWK5 24-353) above
For another assay, the target named is Rat IL-23R_huFC (rat). Nature of the assay: rat ELISA vs IL-23.
Assay [3] addresses IL-23R on human cells (IL-23R-expressing DB cells; human NK cells) (human) (UniProt Q5VWK5). Kind of assay: cell-based or functional assay.

Bounds are passed on as bounds.

IL-23R on human cells (IL-23R-expressing DB cells; human NK cells) (human), sequence (Q5VWK5 24-629): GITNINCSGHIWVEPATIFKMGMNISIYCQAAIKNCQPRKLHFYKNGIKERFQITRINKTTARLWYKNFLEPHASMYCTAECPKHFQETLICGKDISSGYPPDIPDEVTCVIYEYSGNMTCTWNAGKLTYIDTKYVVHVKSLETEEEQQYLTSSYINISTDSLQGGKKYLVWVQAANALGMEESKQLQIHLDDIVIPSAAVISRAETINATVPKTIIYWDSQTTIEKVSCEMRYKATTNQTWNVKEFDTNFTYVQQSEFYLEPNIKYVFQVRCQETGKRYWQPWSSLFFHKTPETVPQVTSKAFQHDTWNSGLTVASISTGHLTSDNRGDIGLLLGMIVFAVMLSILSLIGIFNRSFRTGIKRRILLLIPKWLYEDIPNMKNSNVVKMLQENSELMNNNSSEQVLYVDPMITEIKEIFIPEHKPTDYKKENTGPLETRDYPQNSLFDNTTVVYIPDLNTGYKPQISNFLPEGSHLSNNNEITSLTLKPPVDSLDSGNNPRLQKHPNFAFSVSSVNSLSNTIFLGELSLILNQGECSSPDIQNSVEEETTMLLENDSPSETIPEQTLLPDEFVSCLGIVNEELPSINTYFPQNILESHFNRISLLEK

For orientation: IC50 means the concentration that inhibits the measured activity by half. A low value points to higher potency. For “Ac-[D-Arg]-Cyclo-[[Abu]-QTWOC]-[Phe(4-2ae)]-[2-Nal]-[THP]]-END-NH2 (peptide)”, the 50% inhibitory concentration (IC50) with IL23R_huFC (human) [1] is 1 to 10 nM.
For “[Ac-[Pen]-QTWQ-[Pen]-[Phe[4-(2-aminoethoxy)]-[2-Nal]-[Aib]-[Lys(Ac)]-NQ-NH2]2PEG25 (peptide)”, the IC50 in the assay with IL23R_huFC (human) [2] lay in the range of 10 to 25 nM.
As for “Ac-Cyclo-[[Abu]-QTWQC]-[Phe[4-(2-aminoethoxy)]]-[2-Nal]-[Acbc]-ENN-NH2 (peptide)”, the IC50 in the assay with Rat IL-23R_huFC (rat) was less than 10 nM.
Substance “Ac-[D-Arg]-Cyclo-[[Abu]-QTWEC]-[Phe(4-2ae)]-[2-Nal]-[THP]-EDN-NH2 (peptide)” returned an IC50 in the assay with IL23R_huFC (human) [1] of 10 to 100 nM.
In the assay with IL23R_huFC (human) [1], “Ac-[D-Arg]-Cyclo-[Abu-ETWEC]-[Phe(4-2ae)]-[2-Nal]-[THP]-ENN-NH2 (peptide)” displayed a 50% inhibitory concentration (IC50) of 1 to 10 nM.
As to “Alexa488-PEG4 through [D-Arg]: [D-Arg]-Cyclo-[[Abu]-QTWQC]-[Phe(4-2ae)]-[2-Nal]-[THP]-ENN-NH2 (peptide)”, in assay [3], the pStat3 HTRF IC50 is less than 0.01 µM.
For “Ac-[D-Arg]-Cyclo-[[Abu]-QTWQC]-[Phe(4-2ae)]-[2-Nal]-[THP]-END-OH (peptide)”, the half-inhibitory concentration (IC50) in the assay with IL23R_huFC (human) [1] lay within 10 to 100 nM.
In turn, “Ac-[D-Arg]-Cyclo-[[Abu]ETWQC]-[Phe(4-2ae)]-[2-Nal]-[THP]-ENN-OH (peptide)” showed an IC50 in the assay with IL23R_huFC (human) [1] of 1 to 10 nM.
In the case of “Ac-[D-Arg]-Cyclo-[[Abu]-QTWQC]-[Phe(4-2ae)]-[2-Nal]-[THP]-EDN-NH2 (peptide)”, the concentration for half-maximal inhibition (IC50) with IL23R_huFC (human) [1] was 10 to 100 nM.
The same measure, in the same setting: the result for “Ac-[D-Arg]-Cyclo-[[Abu]-QTWEC]-[Phe(4-2ae)]-[2-Nal]-[THP]-END-NH2 (peptide)” reads 1 to 10 nM; that for “Ac-[D-Arg]-Cyclo-[[Abu]-QTWQC]-[Phe(4-2ae)]-[2-Nal]-[THP]-EDD-NH2 (peptide)”, 10 to 100 nM.
For the substance “Ac-Cyclo-[[Abu]-QTWQC]-[Phe[4-(2-aminoethoxy)]]-[2-Nal]-[Achc]-ENN-NH2 (peptide)”, the IC50 with Rat IL-23R_huFC (rat) is less than 10 nM.
With “[Ac-[Pen]-QTWQ-[Pen]-[Phe[4-(2-aminoethoxy)]-[2-Nal]-[Aib]-[Lys(Ac)]-NQ-NH2]2DIG (peptide)”, the IC50 in the assay with IL23R_huFC (human) [2] fell in the range of 25 to 100 nM.
As for “Ac-Cyclo-[[Abu]-QTWQC]-[Phe(4-2ae)]-[2-Nal]-[THP]-EDN-OH (peptide)”, the IC50 with IL23R_huFC (human) [1] fell in the range of 10 to 100 nM.
On the same count and under the same terms, the result for “Ac-[D-Arg]-Cyclo-[[Abu]-QTWEC]-[Phe(4-2ae)]-[2-Nal]-[THP]-ENN-NH2 (peptide)” reads 1 to 10 nM; that for “Ac-[D-Arg]-Cyclo-[[Abu]-ETWQC]-[Phe(4-2ae)]-[2-Nal]-[THP]-ENN-NH2 (peptide)”, 1 to 10 nM.
The substance “Ac-[D-Arg]-Cyclo-[[Abu]-ETWQC]-[Phe(4-2ae)]-[2-Nal]-[Tetrahydropyran-A]-END-NH2 (peptide)” returned an IC50 with IL23R_huFC (human) [1] of 1 to 10 nM.
Still for that read-out and setting: the result for “Ac-[D-Arg]-Cyclo-[[Abu]-QTWEC]-[Phe(4-2ae)]-[2-Nal]-[THP]-ENN-OH (peptide)” reads 1 to 10 nM.
In the assay with Rat IL-23R_huFC (rat), “Ac-Cyclo-[[Abu]-QTWQC]-[Phe[4-(2-aminoethoxy)]]-[2-Nal]-[Acvc]-ENN-NH2 (peptide)” had an IC50 of less than 10 nM.
For “Ac-[D-Arg]-Cyclo-[[Abu]-ETWQC]-[Phe(4-2ae)]-[2-Nal]-[THP]-EDN-NH2 (peptide)”, in the assay with IL23R_huFC (human) [1], the IC50 fell in the range of 10 to 100 nM.
